Measured values from the DeepSol protein solubility set.

test: soluble on expression in E. coli; label from the status in PepcDB or PDB records

For “MGSDKIHHHHHHMRKVVEVSGVRKSFGELRVLDKVDFYAEEGDFKVIVGENGSGKSTLLKIMIGLLLPDDGEVKVLGVDVKKHWKKLSARIGVVLANERSLYWKLTAWENLDIFGGVYGVPKKVRRERMEELLKRFGLFEYKDKPVEEFSTGMRKKLMICKALIHDPEVLFIDEILNGLDPPSVREMVGFLDERNRRGLTIVMISHVLHVLPENACVVLLRNGRVQMEVRYKDIRSERSEVYEVFENLIRGRNMDEEDTPSGSEGDEDKA”, which “soluble on expression in E. coli” value is on record?
Its value is “not soluble”.

Which “soluble on expression in E. coli” value does the source give for “MNSNGPLMEHGKRRVAYYYDSNIGNYYYGQGHVMKPHRIRMTHHLVLNYGLYRNLEIFRPFPASFEDMTRFHSDEYMTFLKSANPDNLKSFNKQMLKFNVGEDCPLFDGLYEFCQLSSGGSLAAATKLNKQKVDIAINWMGGLHHAKKSEASGFCYTNDIVLGILELLKYHKRVLYVDIDVHHGDGVEEAFYTTDRVMTVSFHKYGDFFPGTGDLKDIGAGKGKLYSVNVPLRDGITDVSYQSIFKPIMTKVMERFDPCAVVLQCGADSLNGDRLGPFNLTLKGHGECARFFRSYNVPLMMVGGGGYTPRNVARCWTYETSIAVDKEVPNELPYNDYFEYFGPNYRLHIESSNAANENSSDMLAKLQTDVIANLEQLTFVPSVQMRPIPEDALSALNDDSLIADQANPDKRLPPQITDGMIQDDGDFYDGEREGDDRRNESDAKRAAQFESEGGEKRQKTE” here?
The value was “not soluble”.

Which “soluble on expression in E. coli” value does the source give for “MIRLILILINILFCHYLYALDCQKRLFDISINEKLSIQESLDELAKYCSFSIIVKDKIAKEKLETLQNSVNIHQMSLDEIFNFFIKEHDLSYDFDGKILRISGINTKIFKISYITSIREGQSITKASVDAKPRQSEYSGSFDDAEDNMIKSMEKFDFWQNIEKEIIVLLKNSHEDYEAKTPIINPNAGLIIVTGTNSQLKSVKNYLQKLENRLKKQVIIDVSILAVSLNESHSSGINWQNFNIGLNSQVNNENSFIQFQNGQGFVKNLGLRANLNFDSIINFLSQNGKTSVLSNPKLMALNNQQAIISVGDTINYQVKESSKGTENGTTVSESYNNYSIFVGILLNILPEISDDGKIMLRINPSLSDFKYPEDNKRQKEPRTIAPDTIQKKLSSVVQVENNQTLILGGLISHDKSNEKNSINFLSKIPILGSLFKGEVLNSKATEIVFIITPSIVDSVNAPSLKDLGFKHYELEHHHHHH” here?
Its value is “not soluble”.

For “DEGPLMMNAFEMITLSQGLNLSALFDRRQDFVKRQTRFVSRREPSEIIANIEAVANSMGFKSHTRNFKTRLEGLSSIKAGQLAVVIEIYEVAPSLFMVDVRKAAGETLEYHKFYKKLCSKLENIIWRATEGIPKSEILRTITF”, which “soluble on expression in E. coli” value is on record?
The value was “soluble”.

Which “soluble on expression in E. coli” value does the source give for “MKLSLVLTARDDGARRLLADTQRQLDRTAKSRAQLERQSHTYALTGIRSEKQIQREIMLTQAAFNRLARSGKASQNDLARAAVATRNRIRELNAELKQGTGFADKMGKIGRFGAAAVAGGAAAYTVLKPAMDNRKQLDENINRVSRQAFIEDNSKSAAWIATEGAQQIKDLALELVEKNGGTHDKALDLISGMMTTGLNFAQTKNEAQAAYAFALASEGSGEDTAKLIKTLKDGGMSGKDLQLGLEHVLQSGLDGTFEVRDMVRELPSLLSAAQQAGMNGVGGLDYLLSLLQSAANKSGSPAEAATNVQNLLSKTLSPDTIGRLKKMANPNDPKKGVDWIGSVVQGKQNGENAVQVLSRLADAMLVKDKQYQDYKKRAAAGDKTAAEQANMLKGALLAQLLPDLQAKQGLLAATDMTQIREYMASLAGVTLDNGKIAKNNEARMLSAAAQQEQQESLAMLRESLTGTLVDMETSFKKLAAEYPNATLALQALTTAATAASAAMLLTAGGGKGAGFLKDVGSKALGWGKASAGGVAAGATAAGGKLLSWGKSAGSGLMNNPALVKRAGLLGMLLYSESLGDGTLPKGLRGTKTTPEMINRLKNNGIRFEPAPKREQARGGVPQYLAAPSAQPTDKMLSPLFSTQTAAYQAAIQQQTAAYQAALAQDTAAVTTGLAQVQSAMASASQTINTNVSLNIDGRVIANEVSRYQVAMFGRGAGQ” here?
The value was “not soluble”.

With “MGSSHHHHHHSSGLVPRGSHMDKGKSVKSTEKSVGMPPKTPKTDNNAHVDNEFLILQVNDAVFPIGSYTHSFGLETYIQQKKVTNKESALEYLKANLSSQFLYTEMLSLKLTYESALQQDLKKILGVEEVIMLSTSPMELRLANQKLGNRFIKTLQAMNELDMGEFFNAYAQKTKDPTHATSYGVFAASLGIELKKALRHYLYAQTSNMVINCVKSVPLSQNDGQKILLSLQSPFNQLIEKTLELDESHLCTASVQNDIKAMQHESLYSRLYMS” as the sequence, how does the “soluble on expression in E. coli” value read?
Its value is “soluble”.

Which “soluble on expression in E. coli” value does the source give for “MNLDQELAEIRASSSDHTNYFYSSERREHMFDKVLTPSDVGKLNRLVIPKQHAENFFPLEDNQNGTVLDFQDKNGKMWRFRYSYWNSSQSYVMTKGWSRFVKEKKLFAGDTVSFYRGYIPDDNAQPERRRKIMFIDWRPRAEINFVHNINNHNFVFGSPTYPTARFYPVTPEYSMPYRSFPPFYQNQFQEREYLGYGYGRVVNGNGVRYYAGSPLDQHHQWNLGRSEPLVYDSVPVFPAGRVPPSAPPQPSTTKKLRLFGVDVEESSSSGDTRGEMGVAGYSSSSPVVIRDDDQSFWRSPRGEMASSSSAMQLSDDEEYKRKGKSLEL” here?
Its value is “soluble”.

Which “soluble on expression in E. coli” value does the source give for “IMIRTDRYGVITYANEKFCEILKYDKEELIGQRFDILNSHYHAQRFFDIMWETISTGNVWNDEIRNKAKDGSYVWLDTTIIPVLNDEHVPNQYIAIYTDLS” here?
Its value is “not soluble”.

Which “soluble on expression in E. coli” value does the source give for “MHISEVKTAFKIADVEYVKDSTKLNFNYLKDLKDENNQPLSQNILTQNVARVYLIVVNGEIKKIGGSQADGGIKSTLNIYKDGGVKGRPNIRSFGVWYFLYHTILTGAKIEFYMIYQPNFETQVKGLFGFCAIKDASISYKLLEQACLTDYRNNSNDALPEWNVQEQGKD” here?
Its value is “not soluble”.

For “STVLDSLQHTGRGDKVYWFCYGMKCYYFVMDRKTWSGCKQTCQSSSLSLLKIDDEDELKFLQLVVPSDSCWVGLSYDNKKKDWAWIDNRPSKLALNTRKYNIRDGGCMLLSKTRLDNGNCDQVFICICGKRLDKFPH”, which “soluble on expression in E. coli” value is on record?
Its value is “soluble”.

Which “soluble on expression in E. coli” value does the source give for “MAHHHHHHMPAHRRYSSVSSSSSRAFSEPSDGGTSSVNDSNSYYSEGSGSYRSVSSVLASRSGAKTTAATTASSTSAVDSSSTNTFSDVLTTSSAYSHSSAPPRRAVTRPAASRSEAVGHKTTKGASGVVVADHNNTGVGETLAQRTASTFTAPTTASSVTVDGTDGLVRAPQSLMLQAALAPVSNRTANVARVKPCNVSEEELVHHPWAPVDCDTTVDASKEGGDRGGLALNVLDTIHTVPIAVPLPPEEAPRRREEGSPTYPSRLAFRVVPSSSPLRHSDSAVTEDKDGTGNGGGGAALGADGATAPRARKTSIACCCCCCLHGCGEKAPCNTKRYTATRQKPHHPLRSHHVPLVSFRTTREHGIPMEGVQNVLPSVEEAARYQNLKVDMMGTEEFPKLMRKAIQPRDRLAGGLRLEKSYAFGHGAGGGRGGAGQSAFVRDGDPQGFWIAHLHRCAIVRLEPIGAE” here?
Its value is “not soluble”.

For “MSLKAIIFDMDGVLVDSMRFQADAWAKAFQDAGINIVREDIYELEGSNDKRLIKSIFKEARKEPEPEHFERLPEKKRDLLEFDRIKPFEGIPECLDELKRHFRLAMVSGSNRNTVGKIVDKFFSGYFDVVINGSDLERGKPDPDPYLKALEMLGLTKNECMVIENAPLGITAAKRAGLYCVAVASMLEPEKVQHADLVLEDHASLFDYLKSLIPGKPQTEGHHHHHH”, which “soluble on expression in E. coli” value is on record?
The value was “soluble”.

For “MGSDKIHHHHHHMTARNILSYSYEEYVEKITAFHGYPAPGVLIGGFMVDLAVKNLPEGILYDAICETRTCLPDAVQLLTPCTFGNGWLTVLPMGLFAVSLYDKFTGEGVRVFLDVEKMGPWQEIRNWFLKLKTKKEQDSERLFKEIREAGPDILELRNVKLKPGFLEKKHKGKIVLCPQCREAYPAQDGELCLSCQGGSPYL”, which “soluble on expression in E. coli” value is on record?
The value was “not soluble”.

With “MGSDKIHHHHHHMEESPLSRAPSRGGVNFLNVARTYIPNTKVECHYTLPPGTMPSASDWIGIFKVEAACVRDYHTFVWSSVPESTTDGSPIHTSVQFQASYLPKPGAQLYQFRYVNRQGQVCGQSPPFQFREPRPMDELVTLEEADGGSDILLVVPKATVLQNQLDESQQERNDLMQLKLQLEGQVTELRSRVQELERALATARQEHTELMEQYKGISRSHGEITEERDILSRQQGDHVARILELEDDIQTISEKVLTKEVELDRLRDTVKALTREQEKLLGQLKEVQADKEQSEAELQVAQQENHHLNLDLKEAKSWQEEQSAQAQRLKDKVAQMKDTLGQAQQRVAELEPLKEQLRGAQELAASSQQKATLLGEELASAAAARDRTIAELHRSRLEVAEVNGRLAELGLHLKEEKCQWSKERAGLLQSVEAEKDKILKLSAEILRLEKAVQEERTQNQVFKTELAREKDSSLVQLSESKRELTELRSALRVLQKEKEQLQEEKQELLEYMRKLEARLEKVADEKWNEDATTEDEEAAVGLSCPAALTDSEDESPEDMRLPPYGLCERGDPGSSPAGPREASPLVVISQPAPISPHLSGPAEDSSSDSEAEDEKSVLMAAVQSGGEEANLLLPELGSAFYDMASGFTVGTLSETSTGGPATPTWKECPICKERFPAESDKDALEDHMDGHFFFSTQDPFTFE” as the sequence, how does the “soluble on expression in E. coli” value read?
Its value is “not soluble”.

Which “soluble on expression in E. coli” value does the source give for “MSFTTISVIGLGYIGLPTAAAFASRQKQVIGVDINQHAVDIINRGEIHIVEPALGNVVKMAVEGGFLRATTTPVEADAYLIAVPTPFKGDHDPDMAYVEAAAKSIAPVLKKGALVILESTSPVGATEQMAGWLAGMRTDLTFPQQAGEQADVNIAYCPERVLPGQVMVELIKNDRVIGGMTPVCSARASALYKIFLEGECVVTNSRTAEMCKLTENSFRDVNIAFANELSLICAEQGINVWELIRLANRHPRVNILQPGPGVGGHCIAVDPWFIVAQNPQQARLIRTAREVNDGKPHWVVDQVKAAVTDCLAATDKRASEVKIACFGLAFKPNIDDLRESPAMGIAQSIARWHSGETLVVEPNIRQLPKKLDGLCTLAKLDAALAAADVLVMLVDHDEFKAIPGDAVHQRYVVDTKGVWR” here?
The value was “soluble”.

With “MGSDKIHHHHHHMMELLNVNNLKVEFHRVEGIVKAVDGISYKLNKGESLGIVGESGSGKSVSVLSLLRLINRNGRIVDGEAIFLGKDLLKLNKEELRNIRGKDISIIFQNPMTSLNPIIRVGIQVMEPIIWHRLMKNEEARERAIELLERVGIPESPKRFLNYPFQFSGGMRQRVMIAMALACHPKLLIADEPTTALDVTIQAQIMELLQELKEEYGMSVIFITHDLSVATNFCDRIITMYAGKIVEEAPVEEILKTPLHPYTKGLLNSTLEIGSRGKKLVPIPGNPPNPTKHPSGCKFHPRCSFAMEICQREEPPLVNISENHRVACHLIKGESK” as the sequence, how does the “soluble on expression in E. coli” value read?
Its value is “not soluble”.

Which “soluble on expression in E. coli” value does the source give for “MSIEKLKAALPEYAKDIKLNLSSITRSSVLDQEQLWGTLLASAAATRNPQVLADIGAEATDHLSAAARHAALGAAAIMGMNNVFYRGRGFLEGRYDDLRPGLRMNIIANPGIPKANFELWSFAVSAINGCSQCLVAHEHTLRTVGVDREAIFEALKAAAIVSGVAQALATIEALSPS” here?
The value was “soluble”.

With “MEEERQQSPLEGLSEEALKHVHQLDEPIPIELQASYFRLSAEMRRRGIQLSENEVQDAEQLLFDPVLSDDIKKMTLLRLAITGNITVFRIIERYLESAPDSMRPWALMAQLEARIGILSDLVDEKQLVITSGLGGHDGMMRFMAFLHTDKLQDFEHYQEELIEKELLYRIGKASGEVERLEMHNNYLLLTFLVPINYDLRNFFSSFIAECNQFGHFLSTTFIITNTQLLTPQGAQVALKKYAEENDLPATN” as the sequence, how does the “soluble on expression in E. coli” value read?
The value was “not soluble”.
